Among the targets are human cathepsin D (human, UniProt P07339 65-412); HIV-1 protease (HIV-1); porcine pepsin (porcine, UniProt P00791 60-385).
What all share (assay): cell-based or functional assay
The target of the next assay is T1, caspase-6 (UniProt P55212 24-293, limits assumed).
T1 sequence (looked up): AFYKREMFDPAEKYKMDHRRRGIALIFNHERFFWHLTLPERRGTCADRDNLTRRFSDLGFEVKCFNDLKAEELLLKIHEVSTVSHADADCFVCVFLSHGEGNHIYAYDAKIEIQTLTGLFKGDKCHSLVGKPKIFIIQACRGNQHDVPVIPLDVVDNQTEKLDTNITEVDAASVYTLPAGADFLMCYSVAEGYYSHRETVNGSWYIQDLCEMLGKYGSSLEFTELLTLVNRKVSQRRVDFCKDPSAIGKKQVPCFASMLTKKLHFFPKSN

Assay [1] addresses T2, autolytically stable caspase-1 variant (D381 E) (UniProt P29466 120-404, limits assumed).
T2 sequence (looked up): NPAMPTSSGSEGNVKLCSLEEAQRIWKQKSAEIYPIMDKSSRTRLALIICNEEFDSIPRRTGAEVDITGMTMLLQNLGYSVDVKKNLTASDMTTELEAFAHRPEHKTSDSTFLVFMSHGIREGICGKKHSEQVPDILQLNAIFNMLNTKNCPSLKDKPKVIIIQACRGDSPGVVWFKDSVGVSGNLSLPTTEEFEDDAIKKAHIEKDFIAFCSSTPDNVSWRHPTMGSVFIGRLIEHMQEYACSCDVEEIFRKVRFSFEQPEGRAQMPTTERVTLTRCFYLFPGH

In assay [2] the target is T3, caspase-3 (UniProt P42574 29-277, limits assumed).
T3 sequence (looked up): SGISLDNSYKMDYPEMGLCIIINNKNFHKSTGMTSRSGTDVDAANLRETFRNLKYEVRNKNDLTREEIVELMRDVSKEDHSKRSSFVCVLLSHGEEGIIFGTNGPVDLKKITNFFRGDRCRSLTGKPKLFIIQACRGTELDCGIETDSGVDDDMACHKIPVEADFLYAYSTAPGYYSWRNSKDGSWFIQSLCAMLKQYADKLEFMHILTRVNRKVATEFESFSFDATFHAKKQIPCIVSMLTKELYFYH

For assay [3], the target named is secreted aspartic proteinase 2 (SAP-2) from Candida albicans (Candida albicans).
In assay [4] the target is plasmepsin 2 (from P. falciparum) (P. falciparum, UniProt P46925 125-453, limits assumed).
In assay [5] the target is T4, schistosome legumain SmAE (Schistosoma mansoni asparaginyl endopeptidase) (Schistosoma mansoni, UniProt P09841 32-291).
T4 sequence (looked up): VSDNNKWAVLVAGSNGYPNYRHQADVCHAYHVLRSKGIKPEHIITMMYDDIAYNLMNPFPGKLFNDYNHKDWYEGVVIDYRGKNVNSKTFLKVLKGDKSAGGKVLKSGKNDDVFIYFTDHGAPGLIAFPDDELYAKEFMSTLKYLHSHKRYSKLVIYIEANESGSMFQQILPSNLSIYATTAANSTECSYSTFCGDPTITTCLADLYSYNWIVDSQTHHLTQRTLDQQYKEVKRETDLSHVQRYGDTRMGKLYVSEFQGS

The target in assay [6] is T2, autolytically stable caspase-1 variant …. The source holds these as a separate data set.
Assay [7] deals with T3, caspase-3. The source holds these as a separate data set.

Like-named read-outs stand apart in the source and are kept apart here. Numbered stars: 1 amine (or outer) side, 2 acyl side, 3 side chain; on linkers, the order of the positions; unused ones are H or OH. Square brackets hold non-standard residues; d marks the D form. * marks the point of attachment. AAsn = aza-asparagine, NC(=O)CN(N[*:1])C(=O)[*:2]; AAsp = aza-Asp, O=C(N(CC(=O)[*:3])N[*:1])[*:2]; azaAsp = O=C(N(CC(=O)[*:3])N[*:1])[*:2]; PhPr = N-terminal cap as named (PhPr); azaAsn = NC(=O)CN(N[*:1])C(=O)[*:2]; (S,S)‑EP = not defined here; trans‑EP = not defined here; Cbz = O=C(OCc1ccccc1)*

Sequence of porcine pepsin (P00791 60-385 limits assumed): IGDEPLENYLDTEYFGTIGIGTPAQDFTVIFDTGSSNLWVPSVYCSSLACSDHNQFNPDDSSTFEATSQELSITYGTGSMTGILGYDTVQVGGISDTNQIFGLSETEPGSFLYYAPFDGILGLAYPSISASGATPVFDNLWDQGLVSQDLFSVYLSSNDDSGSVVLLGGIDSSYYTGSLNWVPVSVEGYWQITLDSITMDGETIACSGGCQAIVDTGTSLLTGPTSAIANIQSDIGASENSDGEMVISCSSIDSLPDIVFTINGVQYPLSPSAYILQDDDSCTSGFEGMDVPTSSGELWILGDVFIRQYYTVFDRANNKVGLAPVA
Sequence of human cathepsin D (P07339 65-412 limits assumed): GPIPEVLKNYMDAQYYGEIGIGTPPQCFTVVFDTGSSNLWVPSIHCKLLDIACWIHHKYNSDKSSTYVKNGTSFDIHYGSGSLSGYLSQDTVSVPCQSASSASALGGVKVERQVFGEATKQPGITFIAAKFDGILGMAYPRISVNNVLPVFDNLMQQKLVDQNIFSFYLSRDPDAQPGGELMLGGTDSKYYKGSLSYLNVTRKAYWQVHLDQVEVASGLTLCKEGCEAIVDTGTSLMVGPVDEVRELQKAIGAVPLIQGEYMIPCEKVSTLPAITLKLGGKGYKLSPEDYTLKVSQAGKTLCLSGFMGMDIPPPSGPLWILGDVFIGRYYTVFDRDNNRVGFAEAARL
Sequence of plasmepsin 2 (from P. falciparum) (P46925 125-453 limits assumed): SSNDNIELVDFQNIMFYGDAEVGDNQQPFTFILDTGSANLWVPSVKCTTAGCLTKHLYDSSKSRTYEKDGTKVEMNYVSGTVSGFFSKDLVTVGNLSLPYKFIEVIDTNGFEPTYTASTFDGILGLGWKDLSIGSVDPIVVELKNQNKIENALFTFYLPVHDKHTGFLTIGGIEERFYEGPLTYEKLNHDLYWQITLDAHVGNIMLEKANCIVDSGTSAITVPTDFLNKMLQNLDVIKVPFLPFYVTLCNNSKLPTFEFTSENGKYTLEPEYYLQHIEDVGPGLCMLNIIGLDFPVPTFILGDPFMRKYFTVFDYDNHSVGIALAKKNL

For PhPr-Val-Ala-[AAsp]-{(2S,3S)‑EP‑CON(CH2Ph)2} [PhPr-Val-Ala-AAsp-(2S,3S)-EP-CON(CH2Ph)2], the k2 was found to be 145 M⁻¹ s⁻¹ with caspase-6, 101000 M⁻¹ s⁻¹ in assay [1] and 830 M⁻¹ s⁻¹ with caspase-3 [2].
With PhPr-Val-Ala-[AAsp]-{(2S,3S)‑EP‑CON(CH2CH2CH2CH3)2} [PhPr-Val-Ala-AAsp-(2S,3S)-EP-CON(CH2CH2CH2CH3)2], the values for the k2 (in the assay with caspase-6; in [1]; with caspase-3 [2]) were 53 M⁻¹ s⁻¹, 26200 M⁻¹ s⁻¹ and 520 M⁻¹ s⁻¹, respectively.
Turning to Cbz-Ala-Ala-[azaAsn]-{(2S,3S)‑EP‑COOEt} [Cbz-Ala-Ala-AAsn-(2S, 3S)-EP-COOEt], the “inhibition of substrate hydrolysis” value (with human cathepsin D; in [3]; in assay [4]; in the assay with HIV-1 protease; with porcine pepsin) was less than 20 % inhibition each time. In assay [5], the IC50 (commonly the concentration needed to halve the response being measured) came to 53 nM.
For the molecule Cbz-Ala-Ala-[AAsn]-{trans‑EP-Ph‑4‑Cl} (reading uncertain; also: printed as Cbz-Ala-Ala-AAsn-(trans)-EP-Ph-4-Cl) [Cbz-Ala-Ala-AAsn-(trans)-EP-Ph-4-Cl], in assay [5], half-maximal inhibition (IC50) required 90 nM.
Take Cbz-IET[azaAsp]-{(R,R)‑EP‑CONHCH2Ph} [Cbz-Ile-Glu-Thr-AAsp-(R, R)-EP-CONHCH2Ph]: the results for the k2 (in assay [6]; with caspase-3 [7]) were 18100 M⁻¹ s⁻¹ and 6480 M⁻¹ s⁻¹, respectively.
As to PhPr-Val-Ala-[AAsp]-{(2S,3S)‑EP‑CON(CH3)CH2Ph} [PhPr-Val-Ala-AAsp-(2S,3S)-EP-CON(CH3)CH2Ph], the k2 with caspase-6 came out at 136 M⁻¹ s⁻¹; in the assay with caspase-3 [2], 1950 M⁻¹ s⁻¹.
Turning to Cbz-Ala-Ala-[AAsn]-{(S,S)‑EP-CON(CH3)CH2Ph} (reading uncertain; also: printed as Cbz-Ala-Ala-AAsn-(S, S)-EP-CON(CH3)CH2Ph) [Cbz-Ala-Ala-AAsn-(S, S)-EP-CON(CH3)CH2Ph], the IC50 in assay [5] worked out at 63 nM. In other words, the double-digit nanomolar range.
For the molecule Cbz-IET[azaAsp]-{(2S,3S)‑EP‑COOEt} [Cbz-Ile-Glu-Thr-AAsp-(2S, 3S)-EP-COOEt], the k2 was determined as 12400 M⁻¹ s⁻¹ in assay [6] and 4080 M⁻¹ s⁻¹ in the assay with caspase-3 [7].
Take Cbz-IET[azaAsp]-{(2S,3S)‑EP‑CON(CH2Ph)2} [Cbz-Ile-Glu-Thr-AAsp-(2S,3S)-EP-CON(CH2Ph)2]: the values for the k2 in the assay with caspase-6 and in the assay with caspase-3 [2] were 32000 M⁻¹ s⁻¹ and 3550 M⁻¹ s⁻¹, respectively.
In assay [5], Cbz-Ala-Ala-[AAsn]-{(S,S)‑EP-COOCH2CH2Ph} (reading uncertain; also: printed as Cbz-Ala-Ala-AAsn-(S, S)-EP-COOCH2CH2Ph) [Cbz-Ala-Ala-AAsn-(S, S)-EP-COOCH2CH2Ph] came in with a concentration for half-maximal inhibition (IC50) of 45 nM.
For the molecule Cbz-IET[azaAsp]-{(2R,3R)‑EP‑COOEt} [Cbz-Ile-Glu-Thr-AAsp-(2R,3R)-EP-COOEt], the k2 in assay [6] came out at 13300 M⁻¹ s⁻¹; with caspase-3 [7] it was 2630 M⁻¹ s⁻¹.
The molecule Cbz-Ala-Ala-[AAsn]-{trans‑EP-CH2CH2Ph} (reading uncertain; also: printed as Cbz-Ala-Ala-AAsn-(trans)-EP-CH2CH2Ph) [Cbz-Ala-Ala-AAsn-(trans)-EP-CH2CH2Ph] displayed an IC50 in [5] of 70 nM.
For the molecule Cbz-IET[azaAsp]-{(S,S)‑EP‑COOCH2Ph} [Cbz-Ile-Glu-Thr-AAsp-(S,S)-EP-COOCH2Ph], the figures for the k2 (in assay [6]; in the assay with caspase-3 [7]) were 45800 M⁻¹ s⁻¹ and 9540 M⁻¹ s⁻¹, respectively.
In assay [5], Cbz-Ala-Ala-[azaAsn]-{(2R,3R)‑EP‑COOEt} [Cbz-Ala-Ala-AAsn-(2R, 3R)-EP-COOEt] yielded an IC50 of 788 nM.
On the same count and under the same terms, to Cbz-Ala-Ala-[AAsn]-{(S,S)‑EP-COOCH2Ph} (reading uncertain; also: printed as Cbz-Ala-Ala-AAsn-(S, S)-EP-COOCH2Ph) [Cbz-Ala-Ala-AAsn-(S, S)-EP-COOCH2Ph] belongs 47 nM; to Cbz-Ala-Ala-[AAsn]-{(S,S)‑EP-CON(nBu)2} (reading uncertain; also: printed as Cbz-Ala-Ala-AAsn-(S, S)-EP-CON(nBu)2) [Cbz-Ala-Ala-AAsn-(S, S)-EP-CON(nBu)2], 68 nM.
For the molecule Cbz-IET[azaAsp]-{(2S,3S)‑EP‑CON(CH3)CH2Ph} [Cbz-Ile-Glu-Thr-AAsp-(2S,3S)-EP-CON(CH3)CH2Ph], the k2 in the assay with caspase-6 was found to be 47700 M⁻¹ s⁻¹; with caspase-3 [2] it was 4780 M⁻¹ s⁻¹.
As to Cbz-IET[azaAsp]-{(R,R)‑EP‑COOCH2Ph} [Cbz-Ile-Glu-Thr-AAsp-(R, R)-EP-COOCH2Ph], the k2 was 13000 M⁻¹ s⁻¹ in [6] and 3120 M⁻¹ s⁻¹ in the assay with caspase-3 [7].

The record behind these values is US20040048327A1 (GEORGIA TECH RESEARCH, published 2004).
